The values that follow come from patent US20230372518A1, “ANTIMITOTIC TETRAPEPTIDE-ANTIBODY CONJUGATES AND METHODS OF USING SAME” (Angiex, Inc., priority 2020, published 2023).

The labels stand for the following.
T1: Transmembrane-4 L six family member-1 (TM4SF1) (human, UniProt P30408 1-202, limits assumed)
T1 construct: also called hTM4SF1; human TM4SF1
T1 sequence: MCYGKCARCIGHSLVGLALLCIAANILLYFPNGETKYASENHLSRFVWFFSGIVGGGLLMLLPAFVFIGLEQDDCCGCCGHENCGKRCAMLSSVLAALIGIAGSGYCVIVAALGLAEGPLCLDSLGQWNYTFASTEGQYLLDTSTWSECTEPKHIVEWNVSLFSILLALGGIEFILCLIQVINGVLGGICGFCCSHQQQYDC

B1: monoclonal murine antibody AGX-A09 (antibody, V domains shown)
VH: EVQLQQSGPELVKPGASVKMSCKASGYTFSSYVMHWVKQKPGQGLEWIGYINPYSDVTNYNEKFKGKATLTSDRSSNTAYMELSSLTSEDSAVYYCARNYFDWGRGTLVTVSA
VL: DIQMTQSPASLSASVGETVTITCRASKNVYSYLAWFQQKQGKSPQLLVYNAKTLAEGVPSRFSGGGSGTQFSLKINSLQPADFGSYYCQHHYNIPFTFGSGTKLEIK
notes: Murine monoclonal antibody
B2: monoclonal murine antibody AGX-A04 (antibody, V domains shown)
VH: EVQLQQSGPELVKPGASVKISCKTSGYTFTDYTMHWVRQSHGKSLEWIGSFNPNNGGLTNYNQKFKGKATLTVDKSSSTVYMDLRSLTSEDSAVYYCTRIRATGFDSWGQGTTLTVSS
VL: DIVMSQSPSSLAVSAGEKVTMSCKSSQSLLNSRTRKNYLAWYQQKPGQSPKLLIYWASTRESGVPDRFTGSGSGTDFTLTISNVQAEDLTVYYCKQSYNPPWTFGGGTKLEIK
notes: Murine monoclonal antibody
B3: monoclonal murine antibody AGX-A07 (antibody, V domains shown)
VH: QIQLVQSGPELKKPGETVKISCKASGYTFTNYGVKWVKQAPGKDLKWMGWINTYTGNPIYAADFKGRFAFSLETSASTAFLQINNLKNEDTATYFCVRFQYGDYRYFDVWGAGTTVTVSS
VL: QIILSQSPAILSASPGEKVTMTCRANSGISFINWYQQKPGSSPKPWIYGTANLASGVPARFGGSGSGTSYSLTISRVEAEDAATYYCQQWSSNPLTFGAGTKLELR
notes: The humanized A07 variants (A07-YTEC etc.) used in the ADC killing assays are different molecules and are not entered
B4: monoclonal murine antibody AGX-A03 (antibody, V domains shown)
VH: QIQLVQSGPELKKPGETVKISCKASGYSFRDYGMNWVKQAPGRTFKWMGWINTYTGAPVYAADFKGRFAFSLDTSASAAFLQINNLKNEDTATYFCARWVSYGNNRNWFFDFWGAGTTVTVSS
VL: DVLMTQTPLSLPVRLGDQASISCRSSQTLVHSNGNTYLEWYLQKPGQSPKLLIYKVSNRLSGVPDRFSGSGSGTDFTLKISRVETEDLGVYYCFQGSHGPWTFGGGTKLEIK
notes: Murine monoclonal antibody
B5: monoclonal murine antibody AGX-A08 (antibody, V domains shown)
VH: EVQLQQSGPELVKPGASVKLSCKASGYTVTSYVMHWVKQKPGQGLEWIGYINPYSDVTNCNEKFKGKATLTSDKTSSTAYMELSSLTSEDSAVYYCSSYGGGFAYWGQGTLVTVSA
VL: DIQMTQSPASLSASVGEPVTITCRASKNIYTYLAWYHQKQGKSPQFLVYNARTLAGGVPSRLSGSGSVTQFSLNINTLHREDLGTYFCQHHYDTPYTFGGGTNLEIK
notes: Murine monoclonal antibody
B6: monoclonal murine antibody AGX-A05 (antibody, V domains shown)
VH: EVQVQQSGPELVKPGASVKMSCKASGYTFTSYVMHWVKQKPGQGLEWIGYINPNNDNINYNEKFKGKASLTSDKSSNTVYMELSSLTSEDSAVYYCAGYGNSGANWGQGTLVTVSA
VL: DIQMTQSPASLSASVGETVTITCRTSKNIFNFLAWYHQKQGRSPRLLVSHTKTLAAGVPSRFSGSGSGTQFSLKINSLQPEDFGIYYCQHHYGTPWTFGGGTKLEIK
notes: Murine monoclonal antibody

Tested on in the first data set: not given
Experiment: not given
As to conditions: treatment with CA4P; cited from earlier work.
Take `COc1ccc(/C=C\c2cc(OC)c(OC)c(OC)c2)cc1OP(=O)(O)O` [CA4P, Combretastatin]: the “Patients who experienced heart attacks while being treated” value is reported as “seven”.

The next data set has as its target T1, Transmembrane-4 L six family member-1 …. In words: antibody screen (method not described in this filing).
Details: not given
In the case of B1, the binding result was “binds”.

Consider B2, for which the binding result was “binds”.

For the molecule B3, the binding result is “binds”.

B4: the binding result is reported as “binds”.

Take B5: the binding result is on record as “binds”.

Turning to B6, the binding result is “binds”.
